Earlier results as cited in publication PMC11528372.

How the values were obtained:
Conditions in all cases: cited from earlier work
[1] = molecular target: Asp85 (UniProt position 98, WARYADWLFTT)
[2] = molecular target: Asp74 (UniProt position 74, WGRYIDWVVTT)
[3] = molecular target: Asp121 (UniProt position 121, AYRYVDWLLTV)
[4] = molecular target: Asp97 (UniProt position 97, VFRYIDWLLTV)

In the case of “Bacteriorhodopsin (BR) (Halobacterium salinarum)”, the pKa [1] is given as ~2.6.
In the case of “Cyanorhodopsin N2098R (Calothrix sp. NIES-2098 rhodopsin) (Calothrix sp. NIES-2098)”, the pKa [2] is listed as <2.0.
For “Gloeobacter rhodopsin (GR) (Gloeobacter violaceus PCC 7421)”, the pKa [3] is listed as ~5.9.
In the case of “Green-absorbing proteorhodopsin (GPR) (uncultured marine gamma proteobacterium EBAC31A08)”, the pKa [4] is given as ~7.9.
